The source of these data is US20200317768A1 (published 2020).

Experiment in all cases: SPR (BIACORE); KD of SG1 / KD of variant;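 also: relative to parent M103205H795-SG1 carrying the SG1 human heavy chain constant region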
For assay [1], the target named is T1, cynomolgus monkey FcγRIIa2 extracellular domain, C-terminal His-tag (cynomolgus monkey).
T1 construct: also called cyno FcγRIIa2; cynoFcgRIIa2; not shown: His-tag added to C-terminus
T1 chain: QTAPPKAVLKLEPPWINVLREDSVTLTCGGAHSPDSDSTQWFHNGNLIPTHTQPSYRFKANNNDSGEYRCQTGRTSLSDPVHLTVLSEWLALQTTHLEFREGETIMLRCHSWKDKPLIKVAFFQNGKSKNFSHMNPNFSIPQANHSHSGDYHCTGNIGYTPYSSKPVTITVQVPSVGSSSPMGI

The target of assay [2] is T2, cynomolgus monkey FcγRIIa3 extracellular domain, C-terminal His-tag (cynomolgus monkey).
T2 construct: also called cyno FcγRIIa3; cynoFcgRIIa3; not shown: His-tag added to C-terminus
T2 chain: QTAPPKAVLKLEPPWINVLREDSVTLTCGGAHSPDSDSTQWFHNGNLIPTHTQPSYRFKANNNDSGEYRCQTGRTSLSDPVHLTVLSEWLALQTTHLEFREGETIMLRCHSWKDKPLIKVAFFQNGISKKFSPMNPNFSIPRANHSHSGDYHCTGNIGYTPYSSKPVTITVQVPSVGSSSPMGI

Assay [3] addresses T3, cynomolgus monkey FcγRIIb extracellular domain, C-terminal His-tag (cynomolgus monkey).
T3 construct: also called cyno FcγRIIb; cynoFcγRIIb; not shown: His-tag added to C-terminus
T3 chain: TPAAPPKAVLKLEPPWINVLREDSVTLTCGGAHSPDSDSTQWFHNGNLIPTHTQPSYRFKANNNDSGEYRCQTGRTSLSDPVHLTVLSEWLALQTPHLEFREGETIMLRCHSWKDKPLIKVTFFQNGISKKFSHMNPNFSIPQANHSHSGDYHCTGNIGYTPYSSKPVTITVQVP

Assay [4] concerns the target T4, cynomolgus monkey FcγRIIIaS extracellular domain, C-terminal His-tag (cynomolgus monkey, UniProt A3RFZ7 21-206 (rhesus entry)).
T4 construct: also called cyno FcγRIIIaS; cynoFcγRIIIaS; not shown: His-tag added to C-terminus

For assay [5], the target named is T5, human FcγRIIIaV extracellular domain, C-terminal His-tag (human, UniProt P08637 17-208).
T5 construct: also called FcgRIIIaV; not shown: His-tag added to C-terminus
T5 sequence (P08637 17-208 F176V): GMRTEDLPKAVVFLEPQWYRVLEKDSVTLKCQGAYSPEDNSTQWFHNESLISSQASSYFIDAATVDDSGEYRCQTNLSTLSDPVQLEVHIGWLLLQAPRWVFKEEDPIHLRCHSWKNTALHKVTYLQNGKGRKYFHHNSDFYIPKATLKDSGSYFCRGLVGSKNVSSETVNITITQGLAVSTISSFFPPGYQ

T4 sequence (A3RFZ7 21-206): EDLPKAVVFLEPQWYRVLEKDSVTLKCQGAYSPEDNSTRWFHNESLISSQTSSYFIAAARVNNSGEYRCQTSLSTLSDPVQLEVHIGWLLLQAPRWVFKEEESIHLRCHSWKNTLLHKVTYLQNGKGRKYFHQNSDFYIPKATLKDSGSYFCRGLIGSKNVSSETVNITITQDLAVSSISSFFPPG

B1: M103205H795-MY101 / M103202L889-SK1 (antibody, human IgG1, kappa)
heavy: QVTLKESGPVLVKPTETLTLTCTVSGIDLSHDDISWVRQAPGKGLEWVGIISYAGSTYYASWAKGRLTISKDTSKNQVVLTMTNMDPVDTATYYCARGVPAYSHGGDLWGQGTLVTVSSASTKGPSVFPLAPSSKSTSGGTAALGCLVKDYFPEPVTVSWNSGALTSGVHTFPAVLQSSGLYSLSSVVTVPSSSLGTQTYICNVNHKPSNTKVDKKVEPKSCDKTHTCPPCPAPELLNGPSVFLFPPKPKDTLMISRTPEVTCVVVDVSEEDPEVKFNWYVDGVEVHNAKTKPREEQYNSTYRVVSVLTVLHQDWLNGKEYKCKVSNKALPKPIEKTISKAKGQPREPQVYTLPPSREEMTKNQVSLTCLVKGFYPSDIAVEWESNGQPENNYKTTPMVLDSDGSFFLYSKLTVDKSRWQQGNVFSCSVMHEALHNHYTQKSLSLSP
light: DIVMTQSPATLSLSPGERATLSCTSSQSVYHANWLSWFQQKPGQPPKLLIYWASTLAYGVPSRFSGSGSGTDFTLTISSLQPEDAATYYCAGGYGGGRYAFGQGTKVEIKRTVAAPSVFIFPPSDEQLKSGTASVVCLLNNFYPREAKVQWKVDNALQSGNSQESVTEQDSKDSTYSLSSTLTLSKADYEKHKVYACEVTHQGLSSPVTKSFNRGEC
notes: CH with G236N/H268E/A330K/P396M against SG1 (EU numbering); also called MS1032LO06-MY101
With B1, the “KD fold (SG1 = 1)” value in assay [1] amounted to 4.3 fold; in assay [2], 4.7 fold; in assay [3] it was 5.1 fold; in assay [4] it was 0.11 fold; in assay [5], 0.07 fold.

B2: M103205H795-MY201 / M103202L889-SK1 (antibody, human IgG1, kappa)
heavy: QVTLKESGPVLVKPTETLTLTCTVSGIDLSHDDISWVRQAPGKGLEWVGIISYAGSTYYASWAKGRLTISKDTSKNQVVLTMTNMDPVDTATYYCARGVPAYSHGGDLWGQGTLVTVSSASTKGPSVFPLAPSSKSTSGGTAALGCLVKDYFPEPVTVSWNSGALTSGVHTFPAVLQSSGLYSLSSVVTVPSSSLGTQTYICNVNHKPSNTKVDKKVEPKSCDKTHTCPPCPAPELLNGPSVFLFPPKPKDTLMISRTPEVTCVVVDVSDEDPEVKFNWYVDGVEVHNAKTKPREEQYNSTYRVVSVLTVLHQDWLNGKEYKCKVSNKALPKPIEKTISKAKGQPREPQVYTLPPSREEMTKNQVSLTCLVKGFYPSDIAVEWESNGQPENNYKTTPPVLDSDGSFFLYSKLTVDKSRWQQGNVFSCSVMHEALHNHYTQKSLSLSP
light: DIVMTQSPATLSLSPGERATLSCTSSQSVYHANWLSWFQQKPGQPPKLLIYWASTLAYGVPSRFSGSGSGTDFTLTISSLQPEDAATYYCAGGYGGGRYAFGQGTKVEIKRTVAAPSVFIFPPSDEQLKSGTASVVCLLNNFYPREAKVQWKVDNALQSGNSQESVTEQDSKDSTYSLSSTLTLSKADYEKHKVYACEVTHQGLSSPVTKSFNRGEC
notes: CH with G236N/H268D/A330K against SG1 (EU numbering); also called MS1032LO06-MY201
As to B2, the “KD fold (SG1 = 1)” value is 3.6 fold in assay [1]; 4.4 fold in assay [2]; 4.2 fold in assay [3]; 0.06 fold in assay [4]; 0.03 fold in assay [5].

B3: M103205H795-MY351 / M103202L889-SK1 (antibody, human IgG1, kappa)
heavy: QVTLKESGPVLVKPTETLTLTCTVSGIDLSHDDISWVRQAPGKGLEWVGIISYAGSTYYASWAKGRLTISKDTSKNQVVLTMTNMDPVDTATYYCARGVPAYSHGGDLWGQGTLVTVSSASTKGPSVFPLAPSSKSTSGGTAALGCLVKDYFPEPVTVSWNSGALTSGVHTFPAVLQSSGLYSLSSVVTVPSSSLGTQTYICNVNHKPSNTKVDKKVEPKSCDKTHTCPPCPAPELLNGPSVFLFPPKPKDTLMISRTPEVTCVVVDVSDEDPEVKFNWYVDGVEVHNAKTKPREEQYNSTYRVVSVLTVLHRDWLNGKEYKCKVSNKALPKPIEKTISKAKGQPREPQVYTLPPSREEMTKNQVSLTCLVKGFYPSDIAVEWESNGQPENNYKTTPPVLDSDGSFFLYSKLTVKKSRWQQGNVFSCSVMHEALHNHYTQKSLSLSP
light: DIVMTQSPATLSLSPGERATLSCTSSQSVYHANWLSWFQQKPGQPPKLLIYWASTLAYGVPSRFSGSGSGTDFTLTISSLQPEDAATYYCAGGYGGGRYAFGQGTKVEIKRTVAAPSVFIFPPSDEQLKSGTASVVCLLNNFYPREAKVQWKVDNALQSGNSQESVTEQDSKDSTYSLSSTLTLSKADYEKHKVYACEVTHQGLSSPVTKSFNRGEC
notes: CH with G236N/H268D/Q311R/A330K/D413K against SG1 (EU numbering); also called MS1032LO06-MY351
Take B3: the “KD fold (SG1 = 1)” value in assay [1] is 6.7 fold; in assay [2], 8.9 fold; in assay [3] it was 5.1 fold; in assay [4] it was 0.07 fold; in assay [5], 0.06 fold.

B4: M103205H795-MY205 / M103202L889-SK1 (antibody, human IgG1, kappa)
heavy: QVTLKESGPVLVKPTETLTLTCTVSGIDLSHDDISWVRQAPGKGLEWVGIISYAGSTYYASWAKGRLTISKDTSKNQVVLTMTNMDPVDTATYYCARGVPAYSHGGDLWGQGTLVTVSSASTKGPSVFPLAPSSKSTSGGTAALGCLVKDYFPEPVTVSWNSGALTSGVHTFPAVLQSSGLYSLSSVVTVPSSSLGTQTYICNVNHKPSNTKVDKKVEPKSCDKTHTCPPCPAPELLNGPSVFLFPPKPKDTLMISRTPEVTCVVVDVSDEDPEVKFNWYVDGVEVHNAKTKPREELYNSTYRVVSVLTVLHQDWLNGKEYKCKVSNKALPKPIEKTISKAKGQPREPQVYTLPPSREEMTKNQVSLTCLVKGFYPSDIAVEWESNGQPENNYKTTPPVLDSDGSFFLYSKLTVDKSRWQQGNVFSCSVMHEALHNHYTQKSLSLSP
light: DIVMTQSPATLSLSPGERATLSCTSSQSVYHANWLSWFQQKPGQPPKLLIYWASTLAYGVPSRFSGSGSGTDFTLTISSLQPEDAATYYCAGGYGGGRYAFGQGTKVEIKRTVAAPSVFIFPPSDEQLKSGTASVVCLLNNFYPREAKVQWKVDNALQSGNSQESVTEQDSKDSTYSLSSTLTLSKADYEKHKVYACEVTHQGLSSPVTKSFNRGEC
notes: CH with G236N/H268D/Q295L/A330K against SG1 (EU numbering); also called MS1032LO06-MY205
B4: the “KD fold (SG1 = 1)” value in assay [1] turned out to be 4.6 fold; in assay [2] it was 5.7 fold; in assay [3], 7.2 fold; in assay [4], 0.06 fold; in assay [5], 0.06 fold.

B5: M103205H795-MY335 / M103202L889-SK1 (antibody, human IgG1, kappa)
heavy: QVTLKESGPVLVKPTETLTLTCTVSGIDLSHDDISWVRQAPGKGLEWVGIISYAGSTYYASWAKGRLTISKDTSKNQVVLTMTNMDPVDTATYYCARGVPAYSHGGDLWGQGTLVTVSSASTKGPSVFPLAPSSKSTSGGTAALGCLVKDYFPEPVTVSWNSGALTSGVHTFPAVLQSSGLYSLSSVVTVPSSSLGTQTYICNVNHKPSNTKVDKKVEPKSCDKTHTCPPCPAPELLTGPSVFLFPPKPKDTLMISRTPEVTCVVVDVSDEDPEVKFNWYVDGVEVHNAKTKPREEQYNSTYRVVSVLTVLHRDWLNGKEYKCKVSNKALPKPIEKTISKAKGQPREPQVYTLPPSREEMTKNQVSLTCLVKGFYPSDIAVEWESNGQPENNYKTTPPVLDSDGSFFLYSKLTVKKSRWQQGNVFSCSVMHEALHNHYTQKSLSLSP
light: DIVMTQSPATLSLSPGERATLSCTSSQSVYHANWLSWFQQKPGQPPKLLIYWASTLAYGVPSRFSGSGSGTDFTLTISSLQPEDAATYYCAGGYGGGRYAFGQGTKVEIKRTVAAPSVFIFPPSDEQLKSGTASVVCLLNNFYPREAKVQWKVDNALQSGNSQESVTEQDSKDSTYSLSSTLTLSKADYEKHKVYACEVTHQGLSSPVTKSFNRGEC
notes: CH with G236T/H268D/Q311R/A330K/D413K against SG1 (EU numbering); also called MS1032LO06-MY335
As for B5, the “KD fold (SG1 = 1)” value in assay [1] was 3 fold; in assay [2] it was 6.3 fold; in assay [3], 2.8 fold; in assay [4], 0.24 fold; in assay [5], 0.16 fold.

B6: M103205H795-MY344 / M103202L889-SK1 (antibody, human IgG1, kappa)
heavy: QVTLKESGPVLVKPTETLTLTCTVSGIDLSHDDISWVRQAPGKGLEWVGIISYAGSTYYASWAKGRLTISKDTSKNQVVLTMTNMDPVDTATYYCARGVPAYSHGGDLWGQGTLVTVSSASTKGPSVFPLAPSSKSTSGGTAALGCLVKDYFPEPVTVSWNSGALTSGVHTFPAVLQSSGLYSLSSVVTVPSSSLGTQTYICNVNHKPSNTKVDKKVEPKSCDKTHTCPPCPAPELLNGPSVFLFPPKPKDTLMISRTPEVTCVVVDVSDEDPEVKFNWYVDGVEVHNAKTKPREELYNSTYRVVSVLTVLHRDWLNGKEYKCKVSNKALPKPIEKTISKAKGQPREPQVYTLPPSREEMTKNQVSLTCLVKGFYPSDIAVEWESNGQPENNYKTTPPVLDSDGSFFLYSKLTVKKSRWQQGNVFSCSVMHEALHNHYTQKSLSLSP
light: DIVMTQSPATLSLSPGERATLSCTSSQSVYHANWLSWFQQKPGQPPKLLIYWASTLAYGVPSRFSGSGSGTDFTLTISSLQPEDAATYYCAGGYGGGRYAFGQGTKVEIKRTVAAPSVFIFPPSDEQLKSGTASVVCLLNNFYPREAKVQWKVDNALQSGNSQESVTEQDSKDSTYSLSSTLTLSKADYEKHKVYACEVTHQGLSSPVTKSFNRGEC
notes: CH with G236N/H268D/Q295L/Q311R/A330K/D413K against SG1 (EU numbering); also called MS1032LO06-MY344
As for B6, the “KD fold (SG1 = 1)” value worked out at 4.6 fold in assay [1]; 7.7 fold in assay [2]; 5.8 fold in assay [3]; 0.07 fold in assay [4]; 0.04 fold in assay [5].
